Data on 1 substance can be found in IntAct's records for PubMed 29611543.

For the assay, the target named is T1, trem2_human TREM2 (UniProt Q9NZC2).
T1 sequence: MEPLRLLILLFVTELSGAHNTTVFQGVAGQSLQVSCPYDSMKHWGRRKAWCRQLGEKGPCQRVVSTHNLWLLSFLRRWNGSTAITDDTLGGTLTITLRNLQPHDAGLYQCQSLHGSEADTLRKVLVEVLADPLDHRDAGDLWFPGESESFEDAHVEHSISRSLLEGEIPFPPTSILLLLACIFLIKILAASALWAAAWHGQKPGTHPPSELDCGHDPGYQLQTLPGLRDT

Turning to “Presenilin-1 (Homo sapiens) (from UniProt P49768) D385A”, the “effect of a mutation on the interaction” value is “with no effect”.
